Paper PMC7062162

Target: HA 2NΔ peptide-DR1 complex (human | influenza A virus) (UniProt P03437)

soluble recombinant HLA-DM (DMA*0101/DMB*0101) (complex)
kcat, fold change against the full HA peptide complex: 5 fold
